Measured values from patent US20120213794A1 (published 2012).

How the values were obtained:
human PCSK9 [1] = molecular target: human PCSK9 (human, UniProt Q8NBP7 31-692); assay: cell-based or functional assay
Target sequence in this assay (Q8NBP7 31-692 limits assumed): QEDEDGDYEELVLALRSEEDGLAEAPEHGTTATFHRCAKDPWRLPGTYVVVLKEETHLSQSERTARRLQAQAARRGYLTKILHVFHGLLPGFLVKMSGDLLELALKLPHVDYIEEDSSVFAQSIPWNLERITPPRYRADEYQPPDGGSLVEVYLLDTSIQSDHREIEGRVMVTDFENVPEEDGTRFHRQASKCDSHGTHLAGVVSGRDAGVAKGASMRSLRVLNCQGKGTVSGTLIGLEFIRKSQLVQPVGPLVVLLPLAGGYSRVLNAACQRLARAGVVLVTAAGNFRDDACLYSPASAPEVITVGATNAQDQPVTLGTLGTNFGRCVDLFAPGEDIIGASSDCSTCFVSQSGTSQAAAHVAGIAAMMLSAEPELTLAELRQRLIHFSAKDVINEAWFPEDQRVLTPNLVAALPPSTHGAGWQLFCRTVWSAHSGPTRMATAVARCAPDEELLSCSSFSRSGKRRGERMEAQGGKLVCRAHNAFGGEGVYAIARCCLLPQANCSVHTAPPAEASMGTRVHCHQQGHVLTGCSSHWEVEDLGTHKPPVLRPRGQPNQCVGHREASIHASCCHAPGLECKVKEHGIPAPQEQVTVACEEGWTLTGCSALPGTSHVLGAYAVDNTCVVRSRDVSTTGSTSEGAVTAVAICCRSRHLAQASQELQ

rhesus PCSK9 [2] = molecular target: rhesus PCSK9 (rhesus, UniProt A8T666 31-692, limits assumed); assay: cell-based or functional assay
murine PCSK9 = murine PCSK9 (mouse, UniProt Q80W65 35-694, limits assumed); assay: cell-based or functional assay
human PCSK9 [3] = molecular target: T1, human PCSK9 (human, UniProt Q8NBP7 31-692); assay: Biacore (SPR), IgG2 captured, PCSK9 as analyte
T1 construct: also called hPCSK9
T1 sequence (Q8NBP7 31-692 limits assumed): as above

Rhesus PCSK9 [4] = molecular target: T2, Rhesus PCSK9 (rhesus, UniProt A8T666 31-692, limits assumed); assay: Biacore (SPR), IgG2 captured, PCSK9 as analyte
T2 construct: also called rhPCSK9
T2 sequence (A8T666 31-692 limits assumed): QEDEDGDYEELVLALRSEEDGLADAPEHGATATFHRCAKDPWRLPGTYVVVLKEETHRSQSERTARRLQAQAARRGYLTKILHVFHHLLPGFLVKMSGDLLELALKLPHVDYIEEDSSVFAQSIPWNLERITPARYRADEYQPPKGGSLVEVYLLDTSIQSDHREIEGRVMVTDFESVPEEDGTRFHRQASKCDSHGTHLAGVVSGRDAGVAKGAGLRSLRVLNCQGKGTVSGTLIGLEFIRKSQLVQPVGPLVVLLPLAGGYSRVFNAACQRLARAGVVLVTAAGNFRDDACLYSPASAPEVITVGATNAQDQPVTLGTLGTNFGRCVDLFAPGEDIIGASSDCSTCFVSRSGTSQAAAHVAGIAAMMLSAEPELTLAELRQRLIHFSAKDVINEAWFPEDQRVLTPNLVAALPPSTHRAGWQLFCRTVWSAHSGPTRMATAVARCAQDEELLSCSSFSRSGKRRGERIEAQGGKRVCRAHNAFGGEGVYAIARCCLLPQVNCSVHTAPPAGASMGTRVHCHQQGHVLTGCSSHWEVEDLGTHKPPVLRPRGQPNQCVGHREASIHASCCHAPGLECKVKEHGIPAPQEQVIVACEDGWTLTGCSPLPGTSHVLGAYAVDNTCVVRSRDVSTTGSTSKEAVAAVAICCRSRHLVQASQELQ

Mouse PCSK9 [5] = molecular target: T3, Mouse PCSK9 (mouse, UniProt Q80W65 35-694, limits assumed); assay: Biacore (SPR), IgG2 captured, PCSK9 as analyte
T3 construct: Column head prints 'Mouse 9'; also called Mouse 9; mPCSK9
T3 sequence (Q80W65 35-694 limits assumed): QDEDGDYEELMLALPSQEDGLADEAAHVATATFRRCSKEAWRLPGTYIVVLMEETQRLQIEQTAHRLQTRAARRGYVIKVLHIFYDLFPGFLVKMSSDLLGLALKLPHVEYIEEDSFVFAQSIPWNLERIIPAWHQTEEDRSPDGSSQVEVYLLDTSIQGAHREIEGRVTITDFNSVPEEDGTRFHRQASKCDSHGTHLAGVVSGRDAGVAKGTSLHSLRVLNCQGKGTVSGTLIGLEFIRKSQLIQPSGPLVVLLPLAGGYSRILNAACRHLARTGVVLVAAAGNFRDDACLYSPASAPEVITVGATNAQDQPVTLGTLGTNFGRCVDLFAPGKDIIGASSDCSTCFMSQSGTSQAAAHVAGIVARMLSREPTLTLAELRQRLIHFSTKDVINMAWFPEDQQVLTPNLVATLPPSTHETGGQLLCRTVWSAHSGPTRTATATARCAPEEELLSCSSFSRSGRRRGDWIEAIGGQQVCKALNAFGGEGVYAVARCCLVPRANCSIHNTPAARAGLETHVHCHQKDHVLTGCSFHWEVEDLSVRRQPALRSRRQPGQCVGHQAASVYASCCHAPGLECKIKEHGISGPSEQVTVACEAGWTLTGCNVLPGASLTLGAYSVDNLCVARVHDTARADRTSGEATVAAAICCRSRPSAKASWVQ

Mouse PCSK9 [6] = molecular target: T3, Mouse PCSK9; assay: Biacore (SPR), IgG2 format
rat PCSK9 = rat PCSK9 (rat, UniProt P59996 31-691, limits assumed); assay: Biacore (SPR), IgG2 captured, PCSK9 as analyte
Sequence of rat PCSK9 (P59996 31-691 limits assumed): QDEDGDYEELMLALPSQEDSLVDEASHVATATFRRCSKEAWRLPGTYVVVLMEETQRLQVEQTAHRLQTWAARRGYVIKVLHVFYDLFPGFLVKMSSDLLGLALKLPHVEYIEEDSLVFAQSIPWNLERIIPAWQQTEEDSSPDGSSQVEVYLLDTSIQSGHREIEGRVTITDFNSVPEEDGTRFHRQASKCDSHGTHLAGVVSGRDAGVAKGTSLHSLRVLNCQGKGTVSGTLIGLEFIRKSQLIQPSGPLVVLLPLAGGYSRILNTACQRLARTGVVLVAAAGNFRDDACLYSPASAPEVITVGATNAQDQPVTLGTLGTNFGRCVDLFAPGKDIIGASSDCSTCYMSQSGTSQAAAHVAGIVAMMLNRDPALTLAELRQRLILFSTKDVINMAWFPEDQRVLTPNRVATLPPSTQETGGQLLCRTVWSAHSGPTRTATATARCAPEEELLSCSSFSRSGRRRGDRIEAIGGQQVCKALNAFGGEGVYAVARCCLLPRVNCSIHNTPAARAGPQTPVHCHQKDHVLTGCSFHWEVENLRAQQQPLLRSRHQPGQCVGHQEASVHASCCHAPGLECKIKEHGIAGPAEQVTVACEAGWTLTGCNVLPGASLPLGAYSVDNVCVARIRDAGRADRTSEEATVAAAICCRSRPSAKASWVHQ

Sequence of murine PCSK9 (Q80W65 35-694 limits assumed): as the sequence (Q80W65 35-694 limits assumed) above
Sequence of rhesus PCSK9 (A8T666 31-692 limits assumed): as the sequence (A8T666 31-692 limits assumed) above

B1: AX114 Fab (Fab, V domains shown)
VH: EVQLLESGGGLVQPGGSLRLSCKASGYTFSSYGMYWVRQAPGKGLEWIGWIDPGSGGTKYNEKFKGKATISRDNSKNTLYLQMNSLRAEDTAVYYCARERYGYYFDYWGQGTLVTVSS
VL: EIVLTQSPATLSLSPGERATITCRASQYVGTYLNWYQQKPGQAPRLLIYDASNRATGIPARFSGSGSGTDFTLTISSLEPEDFAVYYCQVWDSSPPVAFGGGTKVEIK
Fab IC50 (nM), inhibition of PCSK9 on LDL uptake (human PCSK9 [1]): 179 nM
Fab IC50 (nM), inhibition of PCSK9 on LDL uptake (rhesus PCSK9 [2]): 194 nM
Fab IC50 (nM), inhibition of PCSK9 on LDL uptake (murine PCSK9): 326 nM

B2: AX139 Fab (Fab, V domains shown)
VH: EVQLLESGGGLVQPGGSLRLSCKASGYTFSSYGMYWVRQAPGKGLEWIGWIDPGSGGTKYNEKFKGKATISRDNSKNTLYLQMNSLRAEDTAVYYCARERYGYYFDYWGQGTLVTVSS
VL: EIVLTQSPATLSLSPGERATITCRASQYVGSYLNWYQQKPGQAPRLLIYDAANRATGIPARFSGSGSGTDFTLTISSLEPEDFAVYYCQVWDSSPPVVFGGGTKVEIK
Fab IC50 (nM), inhibition of PCSK9 on LDL uptake (human PCSK9 [1]): 37.7 nM
Fab IC50 (nM), inhibition of PCSK9 on LDL uptake (murine PCSK9): 22.9 nM

B3: AX132 Fab (Fab, V domains shown)
VH: EVQLLESGGGLVQPGGSLRLSCKASGYTFSSYGMYWVRQAPGKGLEWIGWIDPGSGGTKYNEKFKGKATISRDNSKNTLYLQMNSLRAEDTAVYYCARERYGYYFDYWGQGTLVTVSS
VL: EIVLTQSPATLSLSPGERATITCRASQYVGSYLNWYQQKPGQAPRLLIYDASNRATGIPARFSGSGSGTDFTLTISSLEPEDFAVYYCQVWDSSPPVVFGGGTKVEIKR
Fab IC50 (nM), inhibition of PCSK9 on LDL uptake (human PCSK9 [1]): 62.2 nM
Fab IC50 (nM), inhibition of PCSK9 on LDL uptake (murine PCSK9): 26.9 nM

B4: AX137 Fab (Fab, V domains shown)
VH: EVQLLESGGGLVQPGGSLRLSCKASGYTFSSYGMYWVRQAPGKGLEWIGWIDPGSGGTKYNEKFKGKATISRDNSKNTLYLQMNSLRAEDTAVYYCARERYGYYFDYWGQGTLVTVSS
VL: EIVLTQSPATLSLSPGERATITCRASQYIGSYLNWYQQKPGQAPRLLIYDASNRATGIPARFSGSGSGTDFTLTISSLEPEDFAVYYCQAWDSSPPVVFGGGTKVEIK
Fab IC50 (nM), inhibition of PCSK9 on LDL uptake (human PCSK9 [1]): 74.4 nM
Fab IC50 (nM), inhibition of PCSK9 on LDL uptake (murine PCSK9): 27.4 nM

B5: AX212 IgG2 (antibody, V domains shown)
VH: QVQLLESGGGLVQPGGSLRLSCKASGYTFSSYSFSWVRQAPGKGLEWIGYIDPGSGGTKYNQKFQGKATISRDNSKNTLYLQMNSLRAEDTAVYYCARQRVGYSLDYWGQGTLVTVSS
VL: EIVLTQSPATLSLSPGERATITCRASQYVGSYLNWYQQKPGQAPRLLIYDASNRATGIPARFSGSGSGTDFTLTISSLEPEDFAVYYCQVWDSSPPVVFGGGTKVEIK
Kd (human PCSK9 [3]): 2.12 nM
Kd (Rhesus PCSK9 [4]): 0.774 nM
Kd (Mouse PCSK9 [5]): 2.74 nM

B6: AX137 IgG2 (antibody, V domains shown)
VH: EVQLLESGGGLVQPGGSLRLSCKASGYTFSSYGMYWVRQAPGKGLEWIGWIDPGSGGTKYNEKFKGKATISRDNSKNTLYLQMNSLRAEDTAVYYCARERYGYYFDYWGQGTLVTVSS
VL: EIVLTQSPATLSLSPGERATITCRASQYIGSYLNWYQQKPGQAPRLLIYDASNRATGIPARFSGSGSGTDFTLTISSLEPEDFAVYYCQAWDSSPPVVFGGGTKVEIK
binding result (Mouse PCSK9 [6]): no binding
Kd (human PCSK9 [3]): 9.98 nM
Kd (Rhesus PCSK9 [4]): 10 nM

B7: AX211 IgG2 (antibody, V domains shown)
VH: QVQLLESGGGLVQPGGSLRLSCKASGYTFSRQGFTWVRQAPGKGLEWIGWIDPGNGGTRYNEKFKGKATISRDNSKNTLYLQMNSLRAEDTAVYYCARYRVGYSLDYWGQGTLVTVSS
VL: EIVLTQSPATLSLSPGERATITCRASQYVGSYLNWYQQKPGQAPRLLIYDASNRATGIPARFSGSGSGTDFTLTISSLEPEDFAVYYCQVWDSSPPVVFGGGTKVEIK
Kd (human PCSK9 [3]): 1.63 nM
Kd (Rhesus PCSK9 [4]): 0.493 nM
Kd (Mouse PCSK9 [5]): 1.66 nM

B8: AX132 IgG2 (antibody)
heavy: EVQLLESGGGLVQPGGSLRLSCKASGYTFSSYGMYWVRQAPGKGLEWIGWIDPGSGGTKYNEKFKGKATISRDNSKNTLYLQMNSLRAEDTAVYYCARERYGYYFDYWGQGTLVTVSSASTKGPSVFPLAPCSRSTSESTAALGCLVKDYFPEPVTVSWNSGALTSGVHTFPAVLQSSGLYSLSSVVTVPSSNFGTQTYTCNVDHKPSNTKVDKTVERKCCVECPPCPAPPVAGPSVFLFPPKPKDTLMISRTPEVTCVVVDVSHEDPEVQFNWYVDGVEVHNAKTKPREEQFNSTFRVVSVLTVVHQDWLNGKEYKCKVSNKGLPAPIEKTISKTKGQPREPQVYTLPPSREEMTKNQVSLTCLVKGFYPSDIAVEWESNGQPENNYKTTPPMLDSDGSFFLYSKLTVDKSRWQQGNVFSCSVMHEALHNHYTQKSLSLSPGK
light: EIVLTQSPATLSLSPGERATITCRASQYVGSYLNWYQQKPGQAPRLLIYDASNRATGIPARFSGSGSGTDFTLTISSLEPEDFAVYYCQVWDSSPPVVFGGGTKVEIKRTVAAPSVFIFPPSDEQLKSGTASVVCLLNNFYPREAKVQWKVDNALQSGNSQESVTEQDSKDSTYSLSSTLTLSKADYEKHKVYACEVTHQGLSSPVTKSFNRGEC
Kd (Mouse PCSK9 [5]): 2.76 nM
Kd (rat PCSK9): ~100 nM
